In PMC12593533, “Unravelling tandem repeat-mediated mutagenesis drive rapid diversification of KPC enzymes: emergence of blaKPC-263 and enhanced resistance to ceftazidime-avibactam” (eBioMedicine, 2025):

Tests used:
Assay in all cases: purified protein
[1] = tested on: CC(C)(O/N=C(\C(=O)N[C@@H]1C(=O)N2C(C(=O)[O-])=C(C[n+]3ccccc3)CS[C@H]12)c1csc(N)n1)C(=O)O
[2] = tested on: C[C@@H](O)[C@H]1C(=O)N2C(C(=O)O)=C(SCCN=CN)C[C@H]12
[3] = tested on: C[C@@H](O)[C@H]1C(=O)N2C(C(=O)O)=C(S[C@@H]3CN[C@H](C(=O)N(C)C)C3)[C@H](C)[C@H]12

## KPC-2 (Klebsiella pneumoniae)
[1]
  Km: 580 µM
  kcat: 42.9 s⁻¹
  kcat/Km: 74000 M⁻¹ s⁻¹
[2]
  Km: 380 µM
  kcat: 199 s⁻¹
  kcat/Km: 523000 M⁻¹ s⁻¹
[3]
  Km: 420 µM
  kcat: 112 s⁻¹
  kcat/Km: 268000 M⁻¹ s⁻¹
